Measured values taken from US20210355178A1 (published 2021).

Target: complement factor C3b (UniProt P01024 23-667; P01024 749-1663)
Experiment: SPR; steady-state fit

Chain of complement factor C3b (P01024 23-667, chain 1 of 2): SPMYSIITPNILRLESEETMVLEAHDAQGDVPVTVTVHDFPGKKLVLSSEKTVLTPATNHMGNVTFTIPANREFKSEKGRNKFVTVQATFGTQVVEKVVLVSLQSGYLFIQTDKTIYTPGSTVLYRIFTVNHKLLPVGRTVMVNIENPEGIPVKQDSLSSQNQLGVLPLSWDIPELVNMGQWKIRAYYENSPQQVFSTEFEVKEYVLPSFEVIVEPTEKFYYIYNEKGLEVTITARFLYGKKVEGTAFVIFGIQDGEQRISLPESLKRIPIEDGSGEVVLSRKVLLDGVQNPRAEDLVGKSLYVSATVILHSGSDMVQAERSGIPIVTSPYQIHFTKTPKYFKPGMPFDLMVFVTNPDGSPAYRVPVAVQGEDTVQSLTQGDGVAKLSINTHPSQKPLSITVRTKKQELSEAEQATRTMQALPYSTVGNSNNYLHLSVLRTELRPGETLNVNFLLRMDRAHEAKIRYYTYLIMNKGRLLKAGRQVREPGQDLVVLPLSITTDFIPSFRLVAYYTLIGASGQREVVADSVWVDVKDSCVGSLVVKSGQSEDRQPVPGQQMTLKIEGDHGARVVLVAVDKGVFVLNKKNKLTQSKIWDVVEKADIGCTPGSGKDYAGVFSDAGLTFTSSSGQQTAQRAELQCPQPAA
Chain of complement factor C3b (P01024 749-1663, chain 2 of 2): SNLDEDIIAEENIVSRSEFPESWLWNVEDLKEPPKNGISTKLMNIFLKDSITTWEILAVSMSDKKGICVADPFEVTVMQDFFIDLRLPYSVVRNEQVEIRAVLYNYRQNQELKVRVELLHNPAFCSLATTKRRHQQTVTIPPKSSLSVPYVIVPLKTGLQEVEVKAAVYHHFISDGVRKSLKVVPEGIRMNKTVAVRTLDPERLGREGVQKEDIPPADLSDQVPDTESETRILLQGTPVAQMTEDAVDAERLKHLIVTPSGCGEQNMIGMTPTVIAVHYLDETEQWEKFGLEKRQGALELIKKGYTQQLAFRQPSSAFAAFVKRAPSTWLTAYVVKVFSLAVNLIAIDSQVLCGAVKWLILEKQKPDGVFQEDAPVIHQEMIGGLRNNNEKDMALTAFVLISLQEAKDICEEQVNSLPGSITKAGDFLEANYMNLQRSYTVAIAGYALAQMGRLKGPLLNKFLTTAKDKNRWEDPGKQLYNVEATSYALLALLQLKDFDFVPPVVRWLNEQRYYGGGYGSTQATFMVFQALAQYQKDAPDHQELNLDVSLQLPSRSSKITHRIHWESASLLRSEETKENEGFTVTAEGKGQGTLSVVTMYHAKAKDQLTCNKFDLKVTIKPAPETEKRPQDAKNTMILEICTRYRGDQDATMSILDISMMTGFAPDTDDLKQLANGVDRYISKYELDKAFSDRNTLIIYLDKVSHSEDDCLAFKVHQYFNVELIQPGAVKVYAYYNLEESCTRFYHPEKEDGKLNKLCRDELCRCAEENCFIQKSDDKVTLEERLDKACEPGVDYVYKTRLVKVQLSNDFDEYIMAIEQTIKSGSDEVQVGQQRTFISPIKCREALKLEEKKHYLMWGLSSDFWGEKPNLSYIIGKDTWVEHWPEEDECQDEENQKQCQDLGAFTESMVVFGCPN

Binder | Kd [nM]
miniFH (designed binder) EDCNELPPRRNTEILTGSWSDQTYPEGTQAIYKCRPGYRSLGNIIMVCRKGEWVALNPLRKCQKRPCGHPGDTPFGTFTLTGGNVFEYGVKAVYTCNEGYQLLGEINYRECDTDGWTNDIPICEVVKCLPVTAPENGKIVSSAMEPDREYHFGQAVRFVCNSGYKIEGDEEMHCSDDGFWSKEKPKCVEISCKSPDVINGSPISQKIIYKENERFQYKCNMGYEYSERGDAVCTESGWRPLPSCEEAGGGGGGGGGGGGGKCGPPPPIDNGDITSFPLSVYAPASSVEYQCQNLYQLEGNKRITCRNGQWSEPPKCLHPCVISREIMENYNIALRWTAKQKLYSRTGESVEFVCKRGYRLSSRSHTLRTTCWDGKLEYPTCAKR | 588
miniFH-Fc (Fc fusion) EDCNELPPRRNTEILTGSWSDQTYPEGTQAIYKCRPGYRSLGNIIMVCRKGEWVALNPLRKCQKRPCGHPGDTPFGTFTLTGGNVFEYGVKAVYTCNEGYQLLGEINYRECDTDGWTNDIPICEVVKCLPVTAPENGKIVSSAMEPDREYHFGQAVRFVCNSGYKIEGDEEMHCSDDGFWSKEKPKCVEISCKSPDVINGSPISQKIIYKENERFQYKCNMGYEYSERGDAVCTESGWRPLPSCEEAGGGGGGGGGGGGGKCGPPPPIDNGDITSFPLSVYAPASSVEYQCQNLYQLEGNKRITCRNGQWSEPPKCLHPCVISREIMENYNIALRWTAKQKLYSRTGESVEFVCKRGYRLSSRSHTLRTTCWDGKLEYPTCAGPGGGGGPGCPAPELLGGPSVFLFPPKPKDTLMISRTPEVTCVVVDVSHEDPEVKFNWYVDGVEVHNAKTKPREEQYQSTYRVVSVLTVLHQDWLNGKEYKCKVSNKALPAPIEKTISKAKGQPREPQVYTLPPSREEMTKNQVSLTCLVKGFYPSDIAVEWESNGQPENNYKTTPPVLDSDGSFFLYSKLTVDKSRWQQGNVFSCSVMHEALHNHYTQKSLSLSPGGGGGGG | 300
